Test results: the supplement of paper PMC11246515
± gives the standard deviation of the averaged measurements.

Assay: total protein half-life in vivo (active degradation + dilution); higher = more stable protein
[1] = E. coli NCM3722 delta-clpP delta-lon delta-hslV, growth: N-lim chemostat, doubling time 6 h
[2] = E. coli NCM3722 delta-clpP, growth: N-lim chemostat, doubling time 6 h
[3] = E. coli NCM3722 delta-hslV, growth: N-lim chemostat, doubling time 6 h
[4] = E. coli NCM3722 delta-lon, growth: N-lim chemostat, doubling time 6 h
[5] = E. coli NCM3722 delta-smpB, growth: N-lim chemostat, doubling time 6 h
[6] = wild type E. coli NCM3722, growth: C-lim chemostat, doubling time 3 h
[7] = wild type E. coli NCM3722, growth: C-lim chemostat, doubling time 6 h
[8] = wild type E. coli NCM3722, growth: C-lim chemostat, doubling time 12 h
[9] = wild type E. coli NCM3722, growth: N-lim chemostat, doubling time 6 h
[10] = wild type E. coli NCM3722, growth: N-lim chemostat, doubling time 12 h
[11] = wild type E. coli NCM3722, growth: P-lim chemostat, doubling time 6 h
[12] = wild type E. coli NCM3722, growth: P-lim chemostat, doubling time 12 h

Row | Sequence | total protein half-life in vivo [1] [h] | total protein half-life in vivo [2] [h] | total protein half-life in vivo [3] [h] | total protein half-life in vivo [4] [h] | total protein half-life in vivo [5] [h] | total protein half-life in vivo [6] [h] | total protein half-life in vivo [7] [h] | total protein half-life in vivo [8] [h] | total protein half-life in vivo [9] [h] | total protein half-life in vivo [10] [h] | total protein half-life in vivo [11] [h] | total protein half-life in vivo [12] [h]
1 | MSEMTPREIVSELDKHIIGQDNAKRSVAIALRNRWRRMQLNEELRHEVTPKNILMIGPTGVGKTEIARRLAKLANAPFIKVEATKFTEVGYVGKEVDSIIRDLTDAAVKMVRVQAIEKNRYRAEELAEERILDVLIPPAKNNWGQTEQQQEPSAARQAFRKKLREGQLDDKEIEIDLAAAPMGVEIMAPPGMEEMTSQLQSMFQNLGGQKQKARKLKIKDAMKLLIEEEAAKLVNPEELKQDAIDAVEQHGIVFIDEIDKICKRGESSGPDVSREGVQRDLLPLVEGCTVSTKHGMVKTDHILFIASGAFQIAKPSDLIPELQGRLPIRVELQALTTSDFERILTEPNASITVQYKALMATEGVNIEFTDSGIKRIAEAAWQVNESTENIGARRLHTVLERLMEEISYDASDLSGQNITIDADYVSKHLDALVADEDLSRFIL [P0A6H5] | 5.09 ± 0.28 | 5.18 ± 0.56 | 4.46 ± 0.12 | 5.23 ± 0.29 | 4.21 ± 0.085 | 2.95 ± 0.36 | 5.94 ± 0.93 | 10.3 ± 0.44 | 4.79 ± 0.11 | 8.11 ± 0.2 | 5.29 ± 0.054 | 10.98 ± 0.036
2 | MSAQPVDIQIFGRSLRVNCPPDQRDALNQAADDLNQRLQDLKERTRVTNTEQLVFIAALNISYELAQEKAKTRDYAASMEQRIRMLQQTIEQALLEQGRITEKTNQNFE [P0ADS2] | – | > 8 | 6.14 ± 0.47 | 6.82 ± 0.47 | 5.21 ± 0.4 | 3.87 | 6.05 ± 0.48 | 10.5 | 4.5 ± 0.25 | 9.14 ± 1.6 | 5.16 ± 0.74 | 10.8 ± 1
3 | MRLTTKFSAFVTLLTGLTIFVTLLGCSLSFYNAIQYKFSHRVQAVATAIDTHLVSNDFSVLRPQITELMMSADIVRVDLLHGDKQVYTLARNGSYRPVGSSDLFRELSVPLIKHPGMSLRLVYQDPMGNYFHSLMTTAPLTGAIGFIIVMLFLAVRWLQRQLAGQELLETRATRILNGERGSNVLGTIYEWPPRTSSALDTLLREIQNAREQHSRLDTLIRSYAAQDVKTGLNNRLFFDNQLATLLEDQEKVGTHGIVMMIRLPDFNMLSDTWGHSQVEEQFFTLTNLLSTFMMRYPGALLARYHRSDFAALLPHRTLKEAESIAGQLIKAVDTLPNNKMLDRDDMIHIGICAWRSGQDTEQVMEHAESATRNAGLQGGNSWAIYDDSLPEKGRGNVRWRTLIEQMLSRGGPRLYQKPAVTREGQVHHRELMCRIFDGNEEVSSAEYMPMVLQFGLSEEYDRLQISRLIPLLRYWPEENLAIQVTVESLIRPRFQRWLRDTLMQCEKSQRKRIIIELAEADVGQHISRLQPVIRLVNALGVRVAVNQAGLTLVSTSWIKELNVELLKLHPGLVRNIEKRTENQLLVQSLVEACSGTSTQVYATGVRSRSEWQTLIQRGVTGGQGDFFASSQPLDTNVKKYSQRYSV | 6 ± 1.2 | 6.52 ± 0.62 | 6.35 ± 0.42 | 5.67 ± 0.62 | 5.945 ± 0.0086 | 3.44 ± 0.17 | 6.042 ± 0.0062 | – | 6.45 ± 0.23 | 11.59 ± 0.06 | 5.52 ± 0.13 | 13 ± 0.43
4 | MNSRQQTILQMVIDQGQVSVTDLAKATGVSEVTIRQDLNTLEKLSYLRRAHGFAVSLDSDDVETRMMSNYTLKRELAEFAASLVQPGETIFIENGSSNALLARTLGEQKKNVTIITVSSYIAHLLKDAPCEVILLGGVYQKKSESMVGPLTRQCIQQVHFSKAFIGIDGWQPETGFTGRDMMRTDVVNAVLEKECEAIVLTDSSKFGAVHSYSIGPVERFNRVITDSKIRASDLMHLEHSKLTIHVVDI | 6.45 ± 1.4 | 6.46 ± 0.62 | 6.54 ± 0.67 | 6.01 ± 0.45 | 5.76 ± 0.27 | 2.87 ± 0.21 | 5.51 ± 0.27 | 11.6 ± 0.87 | 5.91 ± 0.31 | – | 5.57 ± 0.19 | 13.3 ± 0.69
5 | MKADNPFDLLLPAAMAKVAEEAGVYKATKHPLKTFYLAITAGVFISIAFVFYITATTGTGTMPFGMAKLVGGICFSLGLILCVVCGADLFTSTVLIVVAKASGRITWGQLAKNWLNVYFGNLVGALLFVLLMWLSGEYMTANGQWGLNVLQTADHKVHHTFIEAVCLGILANLMVCLAVWMSYSGRSLMDKAFIMVLPVAMFVASGFEHSIANMFMIPMGIVIRDFASPEFWTAVGSAPENFSHLTVMNFITDNLIPVTIGNIIGGGLLVGLTYWVIYLRENDHH [P0AC23] | 6.43 ± 0.36 | 7.27 ± 0.55 | – | 5.87 ± 0.32 | 6.66 ± 1.2 | 3.67 | – | – | 6.07 ± 0.59 | 11.5 ± 0.42 | 6.402 ± 0.033 | –
6 | MKSGRFIGVMSGTSLDGVDVVLATIDEHRVAQLASLSWPIPVSLKQAVLDICQGQQLTLSQFGQLDTQLGQLFADAVNALLKEQNLQARDIVAIGCHGQTVWHEPTGVAPHTLQIGDNNQIVARTGITVVGDFRRRDIALGGQGAPLVPAFHHALLAHPTERRMVLNIGGIANLSLLIPGQPVGGYDTGPGNMLMDAWIWRQAGKPYDKDAEWARAGKVILPLLQNMLSDPYFSQPAPKSTGREYFNYGWLERHLRHFPGVDPRDVQATLAELTAVTISEQVLLSGGCERLMVCGGGSRNPLLMARLAALLPGTEVTTTDAVGISGDDMEALAFAWLAWRTLAGLPGNLPSVTGASQETVLGAIFPANP | 4.58 ± 0.37 | 4.32 ± 0.2 | 3.98 ± 0.065 | 5.78 ± 1.9 | 3.88 ± 0.11 | 3.34 ± 0.54 | 5.7 ± 0.078 | 9.74 ± 0.51 | 4.03 ± 0.26 | 7.18 ± 0.17 | 5.87 ± 0.47 | 12.9 ± 0.95
7 | MKKVAAFVALSLLMAGCVSNDKIAVTPEQLQHHRFVLESVNGKPVTSDKNPPEISFGEKMMISGSMCNRFSGEGKLSNGELTAKGLAMTRMMCANPQLNELDNTISEMLKEGAQVDLTANQLTLATAKQTLTYKLADLMN | 6.45 ± 1.1 | 6.13 ± 0.01 | 6.52 ± 1.3 | – | 6.01 ± 0.55 | 2.95 ± 0.68 | 5.47 ± 1.1 | 11 ± 0.29 | 6.111 ± 0.014 | 11.5 ± 1.1 | 6 ± 0.54 | 12.9 ± 0.28
